Article doi:10.1101/2022.07.02.498517

Target: human ATP synthase complex (human (endogenous in HEK293T))
Test: native gel or EMSA

stoichiometry N: 2
Substance: human ATP synthase complex
